Experimental data from patent US20240240160A1, “NOVEL OLIVETOL SYNTHASES FOR C[…]” (priority 2021, published 2024).

What was measured:
[1] = system: QDX46968.1 from Anoectochilus roxburghii (SEQ ID NO:6); assay: Product inhibition assay with butyryl-CoA and malonyl-CoA; format: biochemical
Method: (§1) Assays were performed in a total volume of 50 μL in 100 mM Tris, pH 7.5 buffer containing 100 μM malonyl-CoA; 100 µM hexanoyl-CoA; a malonyl-CoA regenerating system comprising malonyl-CoA synthetase, excess malonate, and ATP; and excess purified olivetolic acid cyclase (OAC). The major product in this assay was olivetolic acid (OLA), and the triketide pentyl diacetic acid lactone (PDAL) was a side product. N-His-tagged purified enzymes were assayed under these assay conditions at enzyme concentrations and reaction times suitable for initial rate measurements of product formation. Reactions were initiated by addition of the PKS, then incubated for 30 min. Subsequently, 10 μL of reaction solution was removed and quenched into 15 volumes of 75% acetonitrile containing 0.1% formic acid and internal standards, then centrifuged to pellet denatured protein. Supernatants were transferred to fresh plates for LC-MS analysis of OLA, olivetol (OL), and PDAL as described in the Method section above.
(§2) Assays were performed as described in Example 3 with the following exception: instead of hexanoyl-CoA (C6), butyryl-CoA (C4) was used as substrate along with malonyl-CoA, in order to evaluate the inhibitory effect of the products with hexanoyl-CoA (i.e., OLA, OL and PDAL) on the activity of the enzymes. Accordingly, the products in this assay were the tetraketides divarinic acid (DVA) and divarinol (DVL) and the triketide propyl diacetic acid lactone (propyl-DAL) (see FIG. 4). The rates to form these products were measured in the presence of various concentrations of OLA, OL, and PDAL.

[2] = system: AAZ32094.1 from Oncidium hybrid cultivar (SEQ ID NO:2); assay: as above; format: biochemical
Method: as §1, §2

OLS from C. sativa = target: T1, OLS from C. sativa (Cannabis sativa, UniProt B1Q2B6); assay: as above; format: biochemical; conditions: for amount of DVA+DVL formed by the enzyme: at 1 mM of the added product, butyryl-CoA substrate; for enzyme activity: at 2 mM of the added product
T1 construct: made in house
T1 sequence (B1Q2B6 1-385): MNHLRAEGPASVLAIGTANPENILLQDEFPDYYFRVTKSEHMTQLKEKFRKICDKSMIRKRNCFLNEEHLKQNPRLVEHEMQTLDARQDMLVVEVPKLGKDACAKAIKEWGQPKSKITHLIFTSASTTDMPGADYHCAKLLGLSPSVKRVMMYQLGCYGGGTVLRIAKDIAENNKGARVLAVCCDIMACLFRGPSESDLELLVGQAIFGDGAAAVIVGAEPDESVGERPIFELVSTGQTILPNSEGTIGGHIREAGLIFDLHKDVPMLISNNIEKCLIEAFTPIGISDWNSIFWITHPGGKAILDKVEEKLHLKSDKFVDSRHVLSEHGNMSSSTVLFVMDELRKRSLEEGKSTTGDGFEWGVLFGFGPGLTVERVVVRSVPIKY
Method: as §1, §2

[3] = system: E. coli derivative strain which overexpressed an acyl-CoA synthetase (fadD) gene and expressed an olivetolic acid cyclase (OAC) from Cannabis sativa; assay: OL, OLA and PDAL production in E. coli from plasmid-expressed Type-III PKS genes; format: cell-based; conditions: gene on plasmid; for Total: OL + OLA + PDAL; for OL / OLA / PDAL: constitutive promoter, culture spiked with 4 mM hexanoic acid
Method: (§3) To test olivetolic acid production in E. coli, strains comprising a putative OLS gene and an OAC gene from C. sativa were inoculated in multi-well plates containing LB supplemented with 1% glucose and appropriate concentrations of antibiotics. After 6 hours of cultivation at 32° C., the cells were transferred with a 10% inoculum to a P-limited seed medium (see Table 2) and cultivated for ˜18 hours at 32° ° C. to reach an OD of 2.0-4.0. The cultures were transferred with a 20% inoculum in a P-minimal medium (see Table 3) supplemented with 2% glucose and appropriate concentrations of antibiotics. After 3 hours of cultivation at 32° C., the culture was spiked with 4 mM hexanoic acid (˜OD 1.5-2.0). The resulting cultures were then harvested at either 3 hours or 21 hours post hexanoic acid spike; a final OD was taken. 300 μL of butyl acetate containing 500 mg/L undecanoic acid was added to each multi-well plate. The plates were then vortexed for 30 minutes at 1500 rpm and centrifuged for 10 minutes at 4500 rpm. 50 μL of organic layer was transferred to a 96-well plate and derivatized with 50 μL of N,O-Bis(trimethylsilyl)trifluoroacetamide (BSTFA). The plate was then incubated at room temperature for 2 hours to allow for complete derivatization. The samples were then run on GC-FID for analytical quantification of olivetolic acid (OLA), olivetol (OL), PDAL, and hexanoic acid.
(§4) Olivetol, PDAL, OLA, HTAL, CBGA and combinations thereof were analyzed by LCMS or LCMS/MS methods using C18 reversed phase chromatography coupled to either EXACTIVE™ (ThermoFisher) or QTRAP® 4500 (Sciex) mass spectrometers.
(§5) For reversed phase LCMS, compounds were identified by their LC retention times and MRM transitions specific to the compounds. LCMS/MS analysis was conducted on a Shimadzu UHPLC system coupled with AB Sciex QTRAP 4500 mass spectrometer. Agilent Eclipse XDB C18 column (4.6×3.0 mm, 1.8 μm) was used with a 1-min gradient elution at 1 mL/min using water containing 0.1% ammonia acetate as mobile phase A and 90% methanol containing 0.1% ammonia acetate as mobile phase B. The LC column temperature was maintained at 45° C. Negative ionization mode was used for all the analytes.
The genes for 20 Type-III PKS enzymes were codon optimized for E. coli and cloned under control of a constitutive promoter into an expression vector (p15a replicon, carbenicillin resistance marker). The 20 plasmids were transformed into an E. coli derivative strain which overexpressed an acyl-CoA synthetase (fadD) gene and expressed an olivetolic acid cyclase (OAC) from Cannabis sativa.
(§6) The in vivo assay procedure and analytical methods were performed as described above.

[4] = system: E. coli derivative strain which overexpressed an acyl-CoA synthetase (fadD) gene and expressed an olivetolic acid cyclase (OAC) from Cannabis sativa; assay: OL, OLA and PDAL production in E. coli from genome-integrated Type-III PKS genes; format: cell-based; conditions: for Total: OL + OLA + PDAL; for OL / OLA / PDAL: constitutive promoter, 4 mM hexanoic acid
Method: as §3, §4, §5
Three of the type-III PKS genes from Example 1 were integrated under control of a constitutive promoter into an E. coli derivative strain which overexpressed an acyl-CoA synthetase (fadD) gene and expressed an olivetolic acid cyclase (OAC) from Cannabis sativa.
as §6

[5] = system: hexanoyl-CoA and malonyl-CoA; assay: Specific activity assay of purified type-III polyketide synthases (OLA formation in presence of OAC); format: biochemical; conditions: hexanoyl-CoA and malonyl-CoA in the presence of OAC; FIG. 3
Method: In this Example, the specific activities of three previously uncharacterized type-III polyketide synthases (PKS) to form olivetolic acid from hexanoyl-CoA and malonyl-CoA in the presence of olivetolic acid cyclase (OAC) were determined and compared to the olivetol synthase (OLS) from C. sativa.
as §1

[6] = increasing concentrations of the added product
[7] = at 1 mM OLA, butyryl-CoA substrate

**Q.** With `CCCCCc1cc(O)cc(O)c1` [OL, olivetol] as the molecule, how does the “effect on formation of the tetraketide products (DVL+DVA)” value (from here on “effect on formation”) [1, 6] read?
**A.** not inhibited

**Q.** What about the “effect on the triketide product propyl-DAL” value [1, 6] of the same molecule?
**A.** decreased

**Q.** What about the “effect on formation” value [2, 6] of the same molecule?
**A.** not inhibited

**Q.** What about the “effect on the triketide product propyl-DAL” value [2, 6] of the same molecule?
**A.** decreased

**Q.** What about the “amount of DVA+DVL formed by the enzyme” value (OLS from C. sativa) of the same molecule?
**A.** 2 µM

**Q.** And the enzyme activity (OLS from C. sativa)?
**A.** almost completely inactive

**Q.** Which “amount of DVA+DVL formed” value [1, 7] does the source give for `CCCCCc1cc(O)cc(O)c1C(=O)O` [OLA, olivetolic acid] here?
**A.** about 9 μM

**Q.** What about the “amount of the triketide propyl-DAL” value [1, 7] of the same molecule?
**A.** 3 to 5 µM

**Q.** And the “effect on formation” value [1, 6]?
**A.** not inhibited, but rather stimulated

**Q.** And the “effect on the triketide product propyl-DAL” value [1, 6]?
**A.** inhibited

**Q.** And the “amount of DVA+DVL formed” value [2, 7]?
**A.** about 9 μM

**Q.** What about the “amount of the triketide propyl-DAL” value [2, 7] of the same molecule?
**A.** 3 to 5 µM

**Q.** What about the “effect on formation” value [2, 6] of the same molecule?
**A.** not inhibited, but rather stimulated

**Q.** And the “effect on the triketide product propyl-DAL” value [2, 6]?
**A.** inhibited

**Q.** What about the “amount of DVA+DVL formed by the enzyme” value (OLS from C. sativa) of the same molecule?
**A.** 1.5 µM

**Q.** What about the enzyme activity (OLS from C. sativa) of the same molecule?
**A.** almost completely inactive

**Q.** For `CCCCCc1cc(O)cc(=O)o1` [PDAL, pentyl diacetic acid lactone], which “effect on activity of the enzyme” value [1, 6] is on record?
**A.** not inhibited

**Q.** And the “effect on activity of the enzyme” value [2, 6]?
**A.** not inhibited

**Q.** And the “inhibition of the activity of OLS from C. sativa” value (OLS from C. sativa; [6])?
**A.** inhibitory, but to a somewhat lesser extent

B1: AIM58716.1: Type-III PKS enzyme from Cymbidium hybrid cultivar (protein)
chain: MPSLESVKKSNRADGFASILAIGRANPENFIEQSTYPDFFFRVTNSEHLVNLKKKFQRICDKTAIRKRHFVWNEELLNANPCLGTFMDNSLNVRQEFAIREIPKLGAEAATKAIQEWGQPKSRITHLIFCTTSGMDLPGADYQLTQILGLNPNIERVMLYQQGCFAGGTTLRLAKCLAESRKGARVLVVCAETTAVLFRAPSEEHQDDLVTQALFADGASALIVGADPDETAHERASFVIVSTSQVLLPDSAGAIGGHVSEGGLIATLHRDVPQIVSKNVGKCLEEAFTPLGISDWNSIFWVPHPGGRAILDQVEERVGLKPEKLIVSRHVLAEYGNMSSVCVHFALDEMRKRSKKEGKATTGEGLDWGVLFGFGPGLTVETVVLHSVPI
modifications: Cymbidium hybrid cultivar; (1)..(390) AIM58716.1
**Q.** Which results are given for B1?
**A.** Total [3]: 1045 µM; OL [3]: 427 µM; OLA [3]: 436 µM; PDAL [3]: 181 µM; products produced by strains with chromosomally expressed enzyme [4]: produced olivetol (OL), olivetolic acid (OLA) and pentyl diacetic acid lactone (PDAL); Total [4]: 927 µM; OL [4]: 249 µM; OLA [4]: 472 µM; PDAL [4]: 206 µM

B2: QCO76957.1: Type-III PKS enzyme from Dendrobium officinale (protein)
chain: MPSLESIRKAPRANGFASILAIGRANPENFIEQSTYPDFFFRITNSEHLVDLKKKFQRICDKTAIRKRHFVWNEEFITTNPCLHTFMDKSLDVRQEVAIREIPKLGAKAAAKAIQEWGQPKSRITHLIFCTTSGMDLPGADYQLTQILGLNPNVERVMLYQQGCFAGGTTLRLAKCLAESRKGARVLVVCAETTTVLFRGPSEEHQEDLVTQALFADGASALIVGADPDEAAHERASFVIVSTSQVLLPDSAGAIGGHVSEGGLLATLHRDVPKIVSKNVEKCLEEAFTPFGITDWNSIFWVPHPGGRAILDLVEERVGLKPEKLLVSRHVLAEYGNMSSVCVHFALDEMRKRSAIEGKATTGEGLEWGVVFGFGPGLTVETVVLRSVPL
modifications: Dendrobium officinale; (1)..(390) QCO76957.1
**Q.** Which results are given for B2?
**A.** Total [3]: 2095 µM; levels of OLA relative to the E. coli strain with OLS from C. sativa [3]: over two-fold; OL [3]: 579 µM; OLA [3]: 754 µM; PDAL [3]: 761 µM; products produced by strains with chromosomally expressed enzyme [4]: produced olivetol (OL), olivetolic acid (OLA) and pentyl diacetic acid lactone (PDAL); Total [4]: 483 µM; OL [4]: 178 µM; OLA [4]: 223 µM; PDAL [4]: 82 µM

B3: AAZ32094.1: Type-III PKS enzyme from Oncidium hybrid cultivar (protein)
chain: MPSLESVKNAKRAEGFASILAIGRANPEHFIEQSSYPDFFFRVTNSEHLVALKKKFQRICDKTAIRKRHFAWNEELLTTNSCFQTFMGNSLNVRQEFAIREIPKLGAQAANKAIQEWGQPKSRITHLIFCTTSGMDLPGADYQLTEILGLNPNVERVMLYQQGCFAGGTTLRLAKCLAESRKGARVLVVCAETTTVLFRAPSEEHQDDLVTQALFADGASALIVGADPDEAAHERASFIIVSTSQVLLPDSAGAIGGHVSEGGLLATLHRDVPQIVSKNVGKCLEEAFTPLGISDWNSIFWVPHPGGRAILDQIEERVGLKPEKLFISRHVLAEYGNMSSVCVHFALDEMRKRSAKEGKATTGEGLDWGVLFGFGPGLTVETVVLHSVPVTN
modifications: Oncidium hybrid cultivar; (1)..(392) AAZ32094.1
**Q.** With B3 as the molecule, how does the “specific activity to form olivetolic acid compared with OLS from C. sativa” value [5] read?
**A.** higher specific activities

**Q.** And the Total [3]?
**A.** 1781 µM

**Q.** What about the “levels of OLA relative to the E. coli strain with OLS from C. sativa” value [3] of the same molecule?
**A.** over two-fold

**Q.** What about the OL [3] of the same molecule?
**A.** 672 µM

**Q.** What about the OLA [3] of the same molecule?
**A.** 751 µM

**Q.** And the PDAL [3]?
**A.** 358 µM

**Q.** And the “products produced by strains with chromosomally expressed enzyme” value [4]?
**A.** produced olivetol (OL), olivetolic acid (OLA) and pentyl diacetic acid lactone (PDAL)

**Q.** What about the Total [4] of the same molecule?
**A.** 1038 µM

**Q.** What about the OL [4] of the same molecule?
**A.** 355 µM

**Q.** And the OLA [4]?
**A.** 534 µM

**Q.** And the PDAL [4]?
**A.** 149 µM
